Patent US20190153059A1 (ADEPTHERA, published 2019)
Like-named read-outs stand apart in the source and are kept apart here. Square brackets hold non-standard residues; d marks the D form. Ends that are not written are not given here. * marks the point of attachment. Palmitoyl = CCCCCCCCCCCCCCCC(=O)*; miniPEG = mini-PEG spacer unit; AEEA = NCCOCCOCC(=O)O

Key:
Assay in all cases: cell-based or functional assay
CLR/RAMP1 receptor [1] = biological target: T1, CLR/RAMP1 receptor (UniProt Q16602 23-461; O60894 27-148, limits assumed)
CLR/RAMP2 receptor [2] = biological target: T2, CLR/RAMP2 receptor (UniProt Q16602 23-461; O60895 43-175, limits assumed)
CLR/RAMP1 receptor [3] = biological target: T1, CLR/RAMP1 receptor; remark: listed apart in the source
CLR/RAMP2 receptor [4] = biological target: T2, CLR/RAMP2 receptor; remark: listed apart in the source
CLR/RAMP3 receptor = CLR/RAMP3 receptor (UniProt Q16602 23-461; O60896 24-148, limits assumed)
CLR/RAMP1 receptor [5] = biological target: T1, CLR/RAMP1 receptor; remark: listed apart in the source
CLR/RAMP2 receptor [6] = biological target: T2, CLR/RAMP2 receptor; remark: listed apart in the source

T1 sequence (Q16602 23-461 limits assumed, chain 1 of 2): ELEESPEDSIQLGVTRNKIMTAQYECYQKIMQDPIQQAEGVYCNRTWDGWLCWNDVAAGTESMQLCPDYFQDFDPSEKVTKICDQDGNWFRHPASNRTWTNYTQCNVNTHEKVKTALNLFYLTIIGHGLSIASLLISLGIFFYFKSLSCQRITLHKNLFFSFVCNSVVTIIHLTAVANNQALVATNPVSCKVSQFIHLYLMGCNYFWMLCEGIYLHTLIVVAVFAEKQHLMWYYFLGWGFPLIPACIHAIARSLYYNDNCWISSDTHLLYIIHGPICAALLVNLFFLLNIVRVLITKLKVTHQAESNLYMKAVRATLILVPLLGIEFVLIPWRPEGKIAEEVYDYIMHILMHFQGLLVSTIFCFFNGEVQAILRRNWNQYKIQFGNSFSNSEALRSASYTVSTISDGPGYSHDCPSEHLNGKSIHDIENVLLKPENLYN
T1 sequence (O60894 27-148 limits assumed, chain 2 of 2): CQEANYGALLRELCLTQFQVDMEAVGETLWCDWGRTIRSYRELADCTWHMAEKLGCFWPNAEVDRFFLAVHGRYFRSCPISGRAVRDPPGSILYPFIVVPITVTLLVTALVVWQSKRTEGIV
Chain of CLR/RAMP3 receptor (Q16602 23-461 limits assumed, chain 1 of 2): as the sequence (Q16602 23-461 limits assumed, chain 1 of 2) above
Chain of CLR/RAMP3 receptor (O60896 24-148 limits assumed, chain 2 of 2): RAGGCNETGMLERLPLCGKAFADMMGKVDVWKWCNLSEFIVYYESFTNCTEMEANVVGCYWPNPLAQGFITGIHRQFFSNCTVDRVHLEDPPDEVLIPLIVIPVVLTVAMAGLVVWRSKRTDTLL
T2 sequence (Q16602 23-461 limits assumed, chain 1 of 2): as the sequence (Q16602 23-461 limits assumed, chain 1 of 2) above
T2 sequence (O60895 43-175 limits assumed, chain 2 of 2): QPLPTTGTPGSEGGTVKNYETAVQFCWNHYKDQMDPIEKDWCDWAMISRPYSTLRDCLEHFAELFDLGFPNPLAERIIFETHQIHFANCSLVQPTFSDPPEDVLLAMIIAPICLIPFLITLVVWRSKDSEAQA

Binder	CLR/RAMP1 EC50 (CLR/RAMP1 receptor [1])	CLR/RAMP2 EC50 (CLR/RAMP2 receptor [2])	CLR/RAMP1 IC50 (CLR/RAMP1 receptor [3])	CLR/RAMP2 IC50 (CLR/RAMP2 receptor [4])	also measured
Ac-K(Palmitoyl)GCRFGTCTVQKLAHQIYQFTDKDKDNVAPRSKSSPHSY-NH2 (ends and bridges not checked) [SEQ ID NO: 65]	234 nM	19 nM			
Palmitoyl-KGCRFGTCTVQKLAHQIYQFTPAGRQDSAPVDPSSPHSY-NH2 (cysteine pairing not given here) [SEQ ID NO: 31]	0.8 nM	0.9 nM			
Ac-KGCRFGTCTVQKLAHQIYQFTDKDSAPVDPSSPHSY-NH2 (cysteine pairing not given here) [SEQ ID NO: 93]	771 nM	17 nM			
Palmitoyl-KGCRFGTCTVQKLAHQIYQFTDKDAPVDPSSPHSY-NH2 (ends and bridges not checked) [SEQ ID NO: 110]	43 nM	6.4 nM			
KGCRFGTCTVQKLAHQIYQFTDKDVAPRSKISPQGY (miniPEG- at N-terminus; K(PAL); (D-Val) in ...GTCT(D-Val)QKL...; -NH2) [SEQ ID NO: 211]	8 nM	0.9 nM			CLR/RAMP2 Max Activity (CLR/RAMP2 receptor [2]): 22 % of positive control
KGCRFGTCTVQKLAHQIYQFTDKDKDNVAPRSKISPQGY (Pal- at N-terminus; K(Pal); -NH2) [SEQ ID NO: 73]	34 nM	49 nM			
Ac-K(Palmitoyl)GCRFGTCTVQKLAHQIYQFTPAGRQDSAPVDPSSPHSY-NH2 (cysteine pairing not given here) [SEQ ID NO: 33]	0.3 nM	0.4 nM			
Palmitoyl-TVQKLAHQIYQFTDKDKDNSAPVDPSSPHSY-NH2 [SEQ ID NO: 77]			9.9 nM	47 nM	
miniPEG-K(Palmitoyl)VQKLAHQIYQFTDKDKDNSAPVDPSSPHSY-NH2 [SEQ ID NO: 78]			4.8 nM	34 nM	CLR/RAMP1 Max Activity (antagonist) (CLR/RAMP1 receptor [3]): 104 % of positive control; CLR/RAMP3 IC50 (CLR/RAMP3 receptor): 0.8 nM; CLR/RAMP3 Max Activity (antagonist) (CLR/RAMP3 receptor): 101 % of positive control; CLR/RAMP2 Max Activity (antagonist) (CLR/RAMP2 receptor [4]): 107 % of positive control
MiniPEG-KVQKLAHQIYQFTDKDSAPVDPSSPHSY-NH2 (also: K(Pal), Lys not given here) [SEQ ID NO: 112]			1.8 nM	5.3 nM	CLR/RAMP3 IC50 (CLR/RAMP3 receptor): 2.3 nM
Palmitoyl-KVQKLAHQIYQFTDKDSAPVDPSSPHSY-NH2 [SEQ ID NO: 121]			3.2 nM	4.9 nM	CLR/RAMP3 IC50 (CLR/RAMP3 receptor): 1.8 nM
Palmitoyl-KVQKLAHQIYQFTDKSAPVDPSSPHSY-NH2 [SEQ ID NO: 125]			7 nM	7.1 nM	
Palmitoyl-KGCRFGTCTVQKLAHQIYQFTDKDKDNVAPVDPSSPHSY-NH2 (ends and bridges not checked) [SEQ ID NO: 34]	0.2 nM	0.7 nM			
Ac-TVQKLAHQIYQFTDKDKDNSAPVDPSSPHSY-NH2 [SEQ ID NO: 76]			1120 nM	289 nM	
Ace-VTHRLAGLLSRFTDKDKDNVAPRSKISPQGY-NH2 [SEQ ID NO: 115]			1880 nM	117 nM	CLR/RAMP3 IC50 (CLR/RAMP3 receptor): 115 nM
Ace-TVQKLAHRLWQLMGPDKDNVAPRSKISPQGY-NH2 [SEQ ID NO: 116]			152 nM	7.3 nM	CLR/RAMP3 IC50 (CLR/RAMP3 receptor): 53 nM
Palmitoyl-KVQNLSAPVDPSSPHSY-NH2 [SEQ ID NO: 141]					CLR/RAMP1 Max Activity (antagonist) (CLR/RAMP1 receptor [3]): 43 % of positive control; CLR/RAMP2 Max Activity (antagonist) (CLR/RAMP2 receptor [4]): 14 % of positive control
Ac-NFVPTNVGPFAF-NH2 [SEQ ID NO: 144]				> 10000 nM	CLR/RAMP2 Max Activity (antagonist) (CLR/RAMP2 receptor [4]): 0 % of positive control
MiniPEG-KVQKLAHQIYSAPVDPSSPHSY-NH2 (also: K(Pal), Lys not given here) [SEQ ID NO: 114]			4.8 nM	146 nM	CLR/RAMP3 IC50 (CLR/RAMP3 receptor): 8.4 nM

Binder	CLR/RAMP1 EC50 (CLR/RAMP1 receptor [1])	CLR/RAMP2 EC50 (CLR/RAMP2 receptor [2])	CLR/RAMP1 IC50 (CLR/RAMP1 receptor [3])	CLR/RAMP2 IC50 (CLR/RAMP2 receptor [4])	also measured
Palmitoyl-KVQNLSHRLWQLMGPAGSAPVDPSSPHSY-NH2 [SEQ ID NO: 120]			5.8 nM	85 nM	CLR/RAMP3 IC50 (CLR/RAMP3 receptor): 9.2 nM
Palmitoyl-KGCRFGTCTVQKLAHQIYQFTDKDKQDSAPVDPSSPHSY-NH2 (ends and bridges not checked) [SEQ ID NO: 35]	0.8 nM	1 nM			
Palmitoyl-KVQKLAHQIYSAPVDPSSPHSY-NH2 [SEQ ID NO: 122]			7.3 nM	61 nM	CLR/RAMP3 IC50 (CLR/RAMP3 receptor): 4.1 nM
Palmitoyl-KVQKLAHQISAPVDPSSPHSY-NH2 [SEQ ID NO: 123]			4.7 nM	50 nM	
Pal-KVQKLAHQSAPVDPSSPHSY-NH2 [SEQ ID NO: 124]					CLR/RAMP1 Max Activity (antagonist) (CLR/RAMP1 receptor [3]): 95 % of positive control; CLR/RAMP3 Max Activity (antagonist) (CLR/RAMP3 receptor): 102 % of positive control; CLR/RAMP2 Max Activity (antagonist) (CLR/RAMP2 receptor [4]): 103 % of positive control
YAGFLKVQKLSAPVDPSSPHSY (Ace- at N-terminus; (D-Ala) and (D-Leu) in Y(D-Ala)GF(D-Leu); miniPEG before K(Pal); K(Pal); -NH2) [SEQ ID NO: 145]			< 0.5 nM		CLR/RAMP1 Max Activity (antagonist) (CLR/RAMP1 receptor [3]): 99 % of positive control
YGGFLRRIRPKLKKVQKLSAPVDPSSPHSY (Ace- at N-terminus; miniPEG between YGGFLRRIRPKLK and K(Pal); K(Pal); -NH2) [SEQ ID NO: 146]			< 0.5 nM		CLR/RAMP1 Max Activity (antagonist) (CLR/RAMP1 receptor [3]): 102 % of positive control
Palmitoyl-KGCRFGTCTVQKLAHQIYQFTDKGRQDSAPVDPSSPHSY-NH2 (ends and bridges not checked) [SEQ ID NO: 36]	0.6 nM	0.9 nM			
Palmitoyl-KVQKLAHQIYQFTDKDVAPRSKISPQGY-NH2 [SEQ ID NO: 119]			21 nM	0.6 nM	CLR/RAMP3 IC50 (CLR/RAMP3 receptor): 1.5 nM
Palmitoyl-KVQKLNFVPTNVGSKAF-NH2 [SEQ ID NO: 142]					CLR/RAMP1 Max Activity (antagonist) (CLR/RAMP1 receptor [3]): 100 % of positive control; CLR/RAMP2 Max Activity (antagonist) (CLR/RAMP2 receptor [4]): 80 % of positive control
FCFWKTCTKVQKLAHQIYQFTDKDVAPRSKISPQGY ((D-Phe) at position 1 and (D-Trp) in (D-Phe)CF(D-Trp)KTCT; miniPEG before K(Pal); K(Pal); -NH2) [SSTR2 and CLR/RAMP MRL (SEQ ID NO: 218)]					CLR/RAMP1 IC50 (CLR/RAMP1 receptor [5]): 2 nM; CLR/RAMP1 Max Activity (antagonist) (CLR/RAMP1 receptor [5]): 102 % of positive controls; CLR/RAMP2 IC50 (CLR/RAMP2 receptor [6]): < 0.5 nM; CLR/RAMP2 Max Activity (antagonist) (CLR/RAMP2 receptor [6]): 87 % of positive controls
KRPPGFSIKGCRFGTCTVQKLAHQIYQFTDKDVAPRSKISPQGY (Ace- at N-terminus; D/Nal in KRPPGFS-D/Nal-I; miniPEG before K(PAL); K(PAL); -NH2) [BDKRB1 antagonist and CLR/RAMP agonist MRL (SEQ ID NO: 231)]					CLR/RAMP2 EC50 (CLR/RAMP2 receptor [6]): 1 nM; CLR/RAMP2 Max Activity (CLR/RAMP2 receptor [6]): 46 % of positive controls
Palmitoyl-KTKKTLRTGCRFGTCTVQKLAHQIYQFTDKDKDNSAPVDPSSPHSY-NH2 (ends and bridges not checked) [SEQ ID NO: 38]	0.5 nM	0.7 nM			
Ac-TK(Palmitoyl)KTLRTGCRFGTCTVQKLAHQIYQFTDKDKDNSAPVDPSSPHSY-NH2 (ends and bridges not checked) [SEQ ID NO: 39]	0.2 nM	0.5 nM			
Palmitoyl-KTKKTLRTGCRFGTCTVQKLAHQIYQFTDKDKDNVAPVDPSSPHSY-NH2 (ends and bridges not checked) [SEQ ID NO: 40]	2 nM	1 nM			
Ac-TK(Palmitoyl)KTLRTGCRFGTCTVQKLAHQIYQFTDKDKDNVAPVDPSSPHSY-NH2 (ends and bridges not checked) [SEQ ID NO: 41]	0.4 nM	0.9 nM			
[AEEA]K(Palmitoyl)CRFGTCTVQKLAHQIYQFTDKDKDNSAPVDPSSPHSY-NH2 (ends and bridges not checked) [SEQ ID NO: 43]	0.5 nM	0.2 nM			CLR/RAMP1 Max Activity (CLR/RAMP1 receptor [1]): 39 % of positive control; CLR/RAMP2 Max Activity (CLR/RAMP2 receptor [2]): 30 % of positive control
Palmitoyl-KCRFGTCTVQKLAHQIYQFTDKDKDNSAPVDPSSPHSY-NH2 (ends and bridges not checked) [SEQ ID NO: 44]	0.1 nM	0.2 nM			
Palmitoyl-GCRFGTCTVQKLAHQIYQFTDKDKDNSAPVDPSSPHSY-NH2 (ends and bridges not checked) [SEQ ID NO: 45]	0.1 nM	0.3 nM			
